Test results as given in US10774132B2, “Ultralong complementarity determining regions and uses thereof” (THE SCRIPPS RESEARCH INSTITUTE, priority 2012, dated 2020).

Experiments:
CXCR1 = target: T1, CXCR1 (Homo sapiens, UniProt P25024); experiment: Flow cytometry binding to CXCR1-U2OS cells; conditions: CXCR1-U2OS cells; cell culture supernatant; flow cytometry
T1 construct: host or cells: U2OS
T1 sequence (P25024 1-350): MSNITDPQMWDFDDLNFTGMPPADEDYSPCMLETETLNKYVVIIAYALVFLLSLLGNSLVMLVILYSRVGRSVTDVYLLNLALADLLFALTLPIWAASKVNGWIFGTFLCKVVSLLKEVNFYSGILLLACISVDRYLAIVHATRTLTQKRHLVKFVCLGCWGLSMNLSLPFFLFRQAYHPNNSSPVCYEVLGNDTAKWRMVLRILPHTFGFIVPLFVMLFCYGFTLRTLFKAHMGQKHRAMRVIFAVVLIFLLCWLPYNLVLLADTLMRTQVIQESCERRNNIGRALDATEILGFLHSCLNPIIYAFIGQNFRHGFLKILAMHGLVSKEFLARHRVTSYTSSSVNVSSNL
Method: (§1) Briefly, a cell line expressing functionally validated CXCR1 derived from U2OS cells was obtained from DiscoveRx and cultured per manufacturer's instructions (Cat #93-0226C3, DiscoveRx Corporation, Freemont, Calif.). The parental cell line U2OS was obtained from ATCC and cultured under the same conditions as the CXCR1 cells. Cell culture supernatants from Example 2 above were then tested for binding to cells by flow cytometry. The adherent U2OS or CXCR1-U2OS cells were dissociated with Accutase (Innovative Cell Technologies, Inc., San Diego, Calif.), neutralized with an equal volume of media containing 10% serum, centrifuged at 1000 g, and resuspended in PBS with 2% BSA. Next, cells were dispensed into microtiter plates to achieve between 30,000 to 300,000 cells per well, centrifuged again, and resuspended in cell culture supernatant containing expressed IgG, or a dilution of IgG-containing cell culture supernatant. A fluorescent-conjugated anti-Human Fc antibody was used to detect binding of the expressed BLV1H12-IL8 fusion proteins to cells.

Human mPB CD34+ cells = experiment: Proliferative activity on human granulocyte progenitors (flow cytometry); assay type: cell-based; conditions: for Number of CD45RA-CD41-: 7 days, flow cytometry
Method: Human mPB CD34^+ cells were purchased from AllCells. Cells were resuspended in HSC expansion medium (StemSpan SFEM, StemCell Technologies) supplemented with 1× antibiotics and the following recombinant human cytokines: thrombopoietin, IL6, Flt3 ligand, and stem cell factor (100 ng/mL, R & D Systems), then plated in 96-well plates (1000 cells per well), with varied concentrations of BLV1H12-bGCSF fusion antibodies. Cells were cultured for 7 days at 37° C. in a 5% CO2 incubator, then analyzed by flow cytometry to measure cell number and expression of CD45ra and CD41. Cells were stained in staining medium (HBSS supplemented with 2% FBS and 2 mM EDTA) at 4° C. for 1 h with PECy7 anti-CD45ra and eFluor 450 anti-CD41 (eBiosciences), then washed with staining medium and analyzed. Multicolor analysis for cell phenotyping was performed on a LSR II flow cytometer (Becton Dickinson). FIGS. 10A-10E and Tables 9-10 show the human granulocyte progenitor cell proliferative activities of the Ab-GCSF fusion antibodies.

Mouse NFS-60 cells = experiment: Proliferation assay on mouse NFS-60 cells (AlamarBlue); assay type: cell-based; conditions: for F.I. (fluorescence at 595 nm, AlamarBlue, cell viability): 72 hours
Method: Mouse NFS-60 cells were obtained from American Type Culture Collection (ATCC), VA, and cultured in RPMI-1640 medium supplemented with 10% fetal bovine serum (FBS), 0.05 mM 2-mercapoethanol and 62 ng/ml human macrophage colony stimulating factor (M-CSF). For proliferation assay, mouse NFS-60 cells were washed three times with RPMI-1640 medium and resuspended in RPMI-1640 medium with 10% FBS and 0.05 mM 2-mercapoethanol at a density of 1.5×10^5 cells/ml. In 96-well plates, 100 μl of cell suspension was added into each well, followed by the addition of varied concentrations of bGCSF, BLV1H12 antibody, and the immunoglobulin constructs described herein, Equal volume of PBS buffer was added into the control wells. The plates were incubated at 37° C. in a 5% CO2 incubator for 72 hours. Cells were then treated with AlamarBlue (Invitrogen) ( 1/10 volume of cell suspension) for 4 hours at 37° C. Fluorescence at 595 nm for each well was read to indicate the cell viability.

Parental U2OS = experiment: Flow cytometry binding to parental U2OS cells; conditions: cell culture supernatant
Method: as §1

mice neutrophils = experiment: Neutrophil counts in mice, 10th day after injection; assay type: in vivo; conditions: blood stained and counted at the 10th day post-injection
Method: On the 10th day after injection of BLV1H12-bGCSF fusion antibodies into mice for PK study, blood samples were drawn from the mice and stained using the Diff Quick Staining Kit (Thermo Fisher Scientific, IL). Neutrophils and white blood cells were counted under microscope and the percentages of neutrophils were analyzed. FIGS. 12A-12B and Table 12 show proliferative activities of BLV1H12-bGCSF fusion antibodies on mice neutrophils that are blood stained and counted at the 10th day post-injection.

[1] = Pharmacokinetics in mice (ELISA of blood samples); assay type: in vivo; conditions: 70 μg injected, BALB/c mice
Method: For PK study in mice, 70 μg of the immunoglobulin constructs described herein were injected into 3 BALB/c mice per group. Blood samples were drawn from time 0 to 14 days with extended intervals and analyzed by ELISA using anti-human IgG Fc antibody with horseradish peroxidase (HRP) labeled (KPL) and anti-6×His antibody (“6×His” disclosed as SEQ ID NO: 511) with HRP labeled (Clontech). Data were normalized by taking maximal concentration at the first time point (30 min).

B1: Ab: bovine BLV1H12 antibody with ultralong CDR3, no insertion; scaffold of the fusions and control (antibody)
heavy: QVQLRESGPSLVKPSQTLSLTCTASGFSLSDKAVGWVRQAPGKALEWLGSIDTGGNTGYNPGLKSRLSITKDNSKSQVSLSVSSVTTEDSATYYCTSVHQETKKYQSCPDGYRERSDCSNRPACGTSDCCRVSVFGNCLTTLPVSYSYTYNYEWHVDVWGQGLLVTVSS
light: QAVLNQPSSVSGSLGQRVSITCSGSSSNVGNGYVSWYQLIPGSAPRTLIYGDTSRASGVPDRFSGSRSGNTATLTISSLQAEDEADYFCASAEDSSSNAVFGSGTTLTVLGQPKSPPSVTLFPPSTEELNGNKATLVCLISDFYPGSVTVVWKADGSTITRNVETTRASKQSNSKYAASSYLSLTSSDWKSKGSYSCEVTHEGSTVTKTVKPSECS
With B1 the “Median Arbitrary Fluorescence Units (IgG binding)” value (CXCR1) was 4 AFU, the “proliferative activity on human granulocyte progenitor cells” value (Human mPB CD34+ cells) was “lack of proliferative activity” and the “Number of CD45RA-CD41-” value (Human mPB CD34+ cells; 0.28959 ng/mL) was 3666. The “Number of CD45RA-CD41-” value (Human mPB CD34+ cells; 0.86877 ng/mL) was 3839, the “Number of CD45RA-CD41-” value (Human mPB CD34+ cells; 2.60631 ng/mL) was 3852 and the “Number of CD45RA-CD41-” value (Human mPB CD34+ cells; 23.45679 ng/mL) was 3519. For the same molecule, the “Number of CD45RA-CD41-” value (Human mPB CD34+ cells; 70.37037 ng/mL) was 3541, the “Number of CD45RA-CD41-” value (Human mPB CD34+ cells; 211.11111 ng/mL) was 3606 and the “Number of CD45RA-CD41-” value (Human mPB CD34+ cells; 5700 ng/mL) was 4100. The “proliferative activity on mouse NFS-60 cells” value (Mouse NFS-60 cells) was “lack of proliferative activity”, the “F.I. (fluorescence at 595 nm, AlamarBlue, cell viability)” value (Mouse NFS-60 cells; 0.45725 ng/mL) was 1040 and the “F.I. (fluorescence at 595 nm, AlamarBlue, cell viability)” value (Mouse NFS-60 cells; 1.37174 ng/mL) was 1010. For the same molecule, the “F.I. (fluorescence at 595 nm, AlamarBlue, cell viability)” value (Mouse NFS-60 cells; 4.11523 ng/mL) was 983.3, the “F.I. (fluorescence at 595 nm, AlamarBlue, cell viability)” value (Mouse NFS-60 cells; 12.34568 ng/mL) was 971.8 and the “F.I. (fluorescence at 595 nm, AlamarBlue, cell viability)” value (Mouse NFS-60 cells; 37.03704 ng/mL) was 960.5. The “F.I. (fluorescence at 595 nm, AlamarBlue, cell viability)” value (Mouse NFS-60 cells; 111.11111 ng/mL) was 991.83, the “F.I. (fluorescence at 595 nm, AlamarBlue, cell viability)” value (Mouse NFS-60 cells; 333.33333 ng/mL) was 964.798 and the “Median Arbitrary Fluorescence Units (IgG binding)” value (Parental U2OS) was 4 AFU. For the same molecule, the “Percentage of Neutrophil” value (mice neutrophils) was 18.81, the “Percentage (blood level normalized to first time point, 30 min)” value ([1]; day 0.021) was 100.00% and the “Percentage (blood level normalized to first time point, 30 min)” value ([1]; day 0.042) was 106.09%. The “Percentage (blood level normalized to first time point, 30 min)” value ([1]; day 0.083) was 95.88%, the “Percentage (blood level normalized to first time point, 30 min)” value ([1]; day 0.125) was 86.54% and the “Percentage (blood level normalized to first time point, 30 min)” value ([1]; day 0.250) was 74.26%. For the same molecule, the “Percentage (blood level normalized to first time point, 30 min)” value ([1]; day 1.000) was 52.43%, the “Percentage (blood level normalized to first time point, 30 min)” value ([1]; day 2.000) was 39.46% and the “Percentage (blood level normalized to first time point, 30 min)” value ([1]; day 3.000) was 36.97%. For the same molecule, the “Percentage (blood level normalized to first time point, 30 min)” value ([1]; day 8.000) was 45.44%, the “Percentage (blood level normalized to first time point, 30 min)” value ([1]; day 10.000) was 40.98% and the “Percentage (blood level normalized to first time point, 30 min)” value ([1]; day 14.000) was 51.96%.
